Measured values published in patent CN114685663A (UNIV SOUTHWEST, dated 2022).

Columns and labels:
[1] = target: 猪溶素 (Suilysin, SLY), recombinant rSLY (猪链球菌 (Streptococcus suis))
[2] = target: 肺炎链球菌溶血素 (Pneumolysin O, PLY), recombinant rPLY (肺炎链球菌 (Streptococcus pneumoniae))
[3] = target: 李斯特菌溶血素 (Listeriolysin O, LLO), recombinant rLLO (单增李斯特菌 (Listeria monocytogenes))
[4] = target: T1, rSLY D4 (猪链球菌 (Streptococcus suis)); assay: Western blot
T1 construct: also called SLY D4结构域
T1 chain: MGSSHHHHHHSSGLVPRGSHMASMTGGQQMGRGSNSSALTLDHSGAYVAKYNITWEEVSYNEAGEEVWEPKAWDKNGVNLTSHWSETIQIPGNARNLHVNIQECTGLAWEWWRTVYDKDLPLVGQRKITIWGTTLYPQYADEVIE

[5] = target: T2, rLLO D1-3 (单增李斯特菌 (Listeria monocytogenes)); assay: Western blot
T2 construct: also called LLO D1-3结构域
T2 chain: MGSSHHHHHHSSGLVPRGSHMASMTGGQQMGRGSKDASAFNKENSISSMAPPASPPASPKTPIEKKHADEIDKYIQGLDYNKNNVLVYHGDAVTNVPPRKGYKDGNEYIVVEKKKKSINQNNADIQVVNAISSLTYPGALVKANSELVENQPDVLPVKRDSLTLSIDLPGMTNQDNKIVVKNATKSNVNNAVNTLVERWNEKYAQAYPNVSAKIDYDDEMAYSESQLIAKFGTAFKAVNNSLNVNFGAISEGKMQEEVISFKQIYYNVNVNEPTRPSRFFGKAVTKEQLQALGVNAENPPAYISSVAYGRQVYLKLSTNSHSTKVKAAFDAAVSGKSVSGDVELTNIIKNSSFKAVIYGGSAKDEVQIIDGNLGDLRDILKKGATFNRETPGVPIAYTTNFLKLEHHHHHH

[6] = target: T3, rLLO D4 (单增李斯特菌 (Listeria monocytogenes)); assay: Western blot
T3 construct: also called LLO D4结构域

B1: 抗胆固醇依赖性细胞溶素的抗体 (antibody, V domains shown)
VH: QVQLQQSGPGLVKPSQTLSLTCAISGDSVSSNSVAWNWIRQSPSRGLEWLGRTYYRSKWYNDYAVSVKSRITINPDTSKNQFSLQLNSVTPEDTAVYYCVRVDNSGWGNWGQGTLVTVSS
VL: EIVMTQSPLSSPVTLGQPASISCRSSQSLVHRDGNTYLSWLRQRPGQPPRLLIYKISNRFSGVPDRFSGSGAGTDFTLKISRVEAEDVGIYYCMQATQFPTFGGGTKVEIKR
notes: also called 胆固醇依赖性细胞溶素抗体; 抗胆固醇依赖性细胞溶素抗体
EC50 [1]: 0.00018 µM | EC50 [2]: 49.9 µM | EC50 [3]: 44.9 µM | binding result [4]: no binding (tested: 抗体1:1000稀释) | binding result [5]: binds | binding result [6]: no binding (tested: 抗体1:1000稀释)
